Tests used:
G4 Resolvase 1 (G4R1) [1] = molecular target: T1, G4 Resolvase 1 (G4R1) (UniProt Q9H2U1 1-1008); test: EMSA; 50 mM KCl, K+-induced 3+1 G4, 24 h; apparent Kd, n=3; 50 mM KCl, 10 mM NaCl (or 50 mM KCl or 50 mM NaCl alone), 3 mM MgCl2, 50 mM Tris acetate pH 7.8, 70 mM glycine, 0.012% bovine lactalbumin, 10% glycerol, 10 mM EDTA; 37 C, 0.5 or 24 h; 1 pM DNA, 10-500 pM G4R1; gel at 7 C; conditions: protein: recombinant; label: 5'-32P; unimolecular G4; 3+1 in K+, 2+2 basket in Na+
T1 sequence: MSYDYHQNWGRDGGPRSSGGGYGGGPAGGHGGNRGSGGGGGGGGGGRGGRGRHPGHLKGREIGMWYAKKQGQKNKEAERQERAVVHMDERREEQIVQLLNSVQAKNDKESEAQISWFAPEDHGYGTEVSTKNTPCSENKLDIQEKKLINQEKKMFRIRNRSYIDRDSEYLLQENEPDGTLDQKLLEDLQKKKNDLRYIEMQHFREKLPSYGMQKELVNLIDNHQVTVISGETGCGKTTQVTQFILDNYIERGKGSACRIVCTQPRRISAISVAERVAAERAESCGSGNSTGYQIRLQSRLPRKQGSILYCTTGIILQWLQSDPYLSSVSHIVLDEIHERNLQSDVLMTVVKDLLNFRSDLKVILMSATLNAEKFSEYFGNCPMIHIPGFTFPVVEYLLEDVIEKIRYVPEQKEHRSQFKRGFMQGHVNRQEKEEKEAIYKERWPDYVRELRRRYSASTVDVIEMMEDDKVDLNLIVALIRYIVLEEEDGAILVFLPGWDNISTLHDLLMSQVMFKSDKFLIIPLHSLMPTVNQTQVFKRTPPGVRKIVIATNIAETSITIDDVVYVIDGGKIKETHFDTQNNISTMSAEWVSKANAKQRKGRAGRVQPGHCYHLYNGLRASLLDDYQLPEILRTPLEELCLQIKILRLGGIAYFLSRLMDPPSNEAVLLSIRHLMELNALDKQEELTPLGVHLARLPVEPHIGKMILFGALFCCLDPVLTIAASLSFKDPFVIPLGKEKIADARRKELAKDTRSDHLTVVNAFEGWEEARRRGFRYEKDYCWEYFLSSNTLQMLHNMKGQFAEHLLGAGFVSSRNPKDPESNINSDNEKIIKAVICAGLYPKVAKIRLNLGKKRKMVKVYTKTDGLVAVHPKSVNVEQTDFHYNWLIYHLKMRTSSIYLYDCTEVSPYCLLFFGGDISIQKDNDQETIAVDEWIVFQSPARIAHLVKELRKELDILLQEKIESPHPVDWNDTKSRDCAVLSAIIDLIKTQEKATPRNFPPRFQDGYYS

G4 Resolvase 1 (G4R1) [2] = molecular target: T1, G4 Resolvase 1 (G4R1); test: EMSA; K+; complete binding restored; 50 mM KCl, 10 mM NaCl (or 50 mM KCl or 50 mM NaCl alone), 3 mM MgCl2, 50 mM Tris acetate pH 7.8, 70 mM glycine, 0.012% bovine lactalbumin, 10% glycerol, 10 mM EDTA; 37 C, 0.5 or 24 h; 1 pM DNA, 10-500 pM G4R1; gel at 7 C; conditions: protein: recombinant; label: 5'-32P; unimolecular G4, two tetrads expected
G4 Resolvase 1 (G4R1) [3] = molecular target: T1, G4 Resolvase 1 (G4R1); test: EMSA; K+; similar to Tel33; 50 mM KCl, 10 mM NaCl (or 50 mM KCl or 50 mM NaCl alone), 3 mM MgCl2, 50 mM Tris acetate pH 7.8, 70 mM glycine, 0.012% bovine lactalbumin, 10% glycerol, 10 mM EDTA; 37 C, 0.5 or 24 h; 1 pM DNA, 10-500 pM G4R1; gel at 7 C; conditions: protein: recombinant, label: 5'-32P
G4 Resolvase 1 (G4R1) [4] = molecular target: T1, G4 Resolvase 1 (G4R1); test: EMSA; K+; negligible binding; 50 mM KCl, 10 mM NaCl (or 50 mM KCl or 50 mM NaCl alone), 3 mM MgCl2, 50 mM Tris acetate pH 7.8, 70 mM glycine, 0.012% bovine lactalbumin, 10% glycerol, 10 mM EDTA; 37 C, 0.5 or 24 h; 1 pM DNA, 10-500 pM G4R1; gel at 7 C; conditions: protein: recombinant; label: 5'-32P; G4 ablated (CD)
G4 Resolvase 1 (G4R1) [5] = molecular target: T1, G4 Resolvase 1 (G4R1); test: EMSA; K+; significant binding restored; 50 mM KCl, 10 mM NaCl (or 50 mM KCl or 50 mM NaCl alone), 3 mM MgCl2, 50 mM Tris acetate pH 7.8, 70 mM glycine, 0.012% bovine lactalbumin, 10% glycerol, 10 mM EDTA; 37 C, 0.5 or 24 h; 1 pM DNA, 10-500 pM G4R1; gel at 7 C; conditions: protein: recombinant; label: 5'-32P; unimolecular G4, two tetrads expected
G4 Resolvase 1 (G4R1) [6] = molecular target: T1, G4 Resolvase 1 (G4R1); test: EMSA; K+; 50 mM KCl, 10 mM NaCl (or 50 mM KCl or 50 mM NaCl alone), 3 mM MgCl2, 50 mM Tris acetate pH 7.8, 70 mM glycine, 0.012% bovine lactalbumin, 10% glycerol, 10 mM EDTA; 37 C, 0.5 or 24 h; 1 pM DNA, 10-500 pM G4R1; gel at 7 C; conditions: protein: recombinant, label: 5'-32P, unimolecular G4, 3+1 in K+
G4 Resolvase 1 (G4R1) [7] = molecular target: T1, G4 Resolvase 1 (G4R1); test: EMSA; K+; did not significantly bind; 50 mM KCl, 10 mM NaCl (or 50 mM KCl or 50 mM NaCl alone), 3 mM MgCl2, 50 mM Tris acetate pH 7.8, 70 mM glycine, 0.012% bovine lactalbumin, 10% glycerol, 10 mM EDTA; 37 C, 0.5 or 24 h; 1 pM DNA, 10-500 pM G4R1; gel at 7 C; conditions: protein: recombinant; label: 5'-32P; unimolecular G4, 3+1 in K+, at most 2 nt 3' tail
[8] = unimolecular 5' G4 with about 11 nt 3' tail

**Q.** Which Kd (G4 Resolvase 1 (G4R1) [1]) does the source give for TTAGGGTTAGGGTTAGGGTTAGGGTTAGGGTTA (structured_DNA) [Tel33] here?
**A.** 0.01 ± 0.0019 nM

**Q.** Does TTAGAGGTAGGGTTAGGGTTAGGGTTAGAGTTA (structured_DNA) [Tel33mut5-mutA-pos7G] bind (G4 Resolvase 1 (G4R1) [2])?
**A.** binds

**Q.** Does TTAGGGTTAGGGTTAGGGTTAGGGTTAGAGTTA (structured_DNA) [Tel33mut5] bind (G4 Resolvase 1 (G4R1) [3]; unimolecular 5' G4 with 3' tail about 11 nt)?
**A.** binds

**Q.** Does TTAGAGTTAGGGTTAGGGTTAGGGTTAGAGTTA (ssDNA) [Tel33mut5-mutA] bind (G4 Resolvase 1 (G4R1) [4])?
**A.** no binding

**Q.** Does TTGGAGTTAGGGTTAGGGTTAGGGTTAGAGTTA (structured_DNA) [Tel33mut5-mutA-pos3G] bind (G4 Resolvase 1 (G4R1) [5])?
**A.** binds

**Q.** Does AGGGTTAGGGTTAGGGTTAGGGTTAGAATTTTT (structured_DNA) [Tel22-3'polyT-mutAGAA] bind (G4 Resolvase 1 (G4R1) [3]; [8])?
**A.** binds

**Q.** Does AGGGTTAGGGTTAGGGTTAGGGTTAAGATTTTT (structured_DNA) [Tel22-3'polyT-mutAAGA] bind (G4 Resolvase 1 (G4R1) [3]; [8])?
**A.** binds

**Q.** Does GGTTAGGGTTAGGGTTAGGGTTAGGGTTAG (structured_DNA) [Tel30] bind (G4 Resolvase 1 (G4R1) [6])?
**A.** binds

**Q.** Does AGGGTTAGGGTTAGGGTTAGGG (structured_DNA) [Tel22] bind (G4 Resolvase 1 (G4R1) [6]; no 3' tail)?
**A.** no binding

**Q.** Does TTAGGGTTAGGGTTAGGGTTAGGGTT (structured_DNA) [Tel26] bind (G4 Resolvase 1 (G4R1) [7])?
**A.** no binding

— PMC4501837, “Mutational Dissection of Telomeric DNA Binding Requirements of G4 Resolvase 1 Shows that G4-Structure and Certain 3’-Tail Sequences Are Sufficient for Tight and Complete Binding”
